The target of one series is VDR:RXRa (Homo sapiens, UniProt P11473;P19793 full;full). The series is described as follows: no ligand; PBM; 270 nM : 90 nM RXRa; PBS pH 7.4, 2% milk, 0.02% Triton X-100, 1 mM DTT, BSA, 0.4 mg/ml salmon testes DNA. The note with it: tags: His kept;His cleaved; copies: 1;1; label: surface-attached array probe. The gist of the method:
(§1)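 Binding z-scores were set against random background probes. The data came from custom Agilent 4×180K protein-binding microarrays carrying double-stranded probes with 34-nt variable regions, incubated 1 h with ligand-free nuclear receptor dimers. Partner-specific antibodies detected binding, and scanned fluorescence was regression-normalized.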

Another series deals with LXRb:RXRa (Homo sapiens, UniProt P55055;P19793 full;full). The series is described as above. The note with it: tags: His kept;His cleaved; copies: 1;1; label: surface-attached array probe. The gist of the method:
as §1

A further series deals with FXR:RXRa (Homo sapiens, UniProt Q96RI1;P19793 full;full). The description is as above. The note with it: tags: His kept;His cleaved; copies: 1;1; label: surface-attached array probe. The method in brief: as §1
FXR:RXRa, sequence (Q96RI1 whole entry, chain 1 of 2): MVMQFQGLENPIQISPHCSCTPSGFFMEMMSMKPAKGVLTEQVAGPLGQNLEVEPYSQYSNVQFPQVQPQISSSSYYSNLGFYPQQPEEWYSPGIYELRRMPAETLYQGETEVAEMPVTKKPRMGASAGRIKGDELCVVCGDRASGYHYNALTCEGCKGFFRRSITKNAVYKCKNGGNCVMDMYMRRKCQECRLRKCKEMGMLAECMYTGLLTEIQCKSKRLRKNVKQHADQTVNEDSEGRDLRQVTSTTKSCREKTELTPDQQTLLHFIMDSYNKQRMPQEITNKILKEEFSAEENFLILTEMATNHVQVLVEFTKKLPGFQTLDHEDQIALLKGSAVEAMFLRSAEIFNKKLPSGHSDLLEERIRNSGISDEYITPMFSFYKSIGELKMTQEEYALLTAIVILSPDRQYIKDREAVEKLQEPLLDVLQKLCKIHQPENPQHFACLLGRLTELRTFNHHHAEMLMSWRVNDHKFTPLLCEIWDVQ
FXR:RXRa, sequence (P19793 whole entry, chain 2 of 2): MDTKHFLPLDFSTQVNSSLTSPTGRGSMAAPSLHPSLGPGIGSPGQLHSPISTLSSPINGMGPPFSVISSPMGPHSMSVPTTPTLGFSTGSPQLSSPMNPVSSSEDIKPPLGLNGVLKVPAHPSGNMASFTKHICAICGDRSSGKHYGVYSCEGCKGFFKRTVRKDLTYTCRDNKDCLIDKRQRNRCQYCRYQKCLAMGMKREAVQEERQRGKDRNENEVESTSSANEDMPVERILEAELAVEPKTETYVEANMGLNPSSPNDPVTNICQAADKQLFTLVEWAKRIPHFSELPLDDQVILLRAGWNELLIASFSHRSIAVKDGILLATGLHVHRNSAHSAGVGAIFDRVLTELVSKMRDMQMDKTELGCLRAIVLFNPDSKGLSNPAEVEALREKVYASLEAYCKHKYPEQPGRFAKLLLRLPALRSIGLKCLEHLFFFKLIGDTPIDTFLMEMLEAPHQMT
The target of another series is RARg:RXRa (Homo sapiens, UniProt P13631;P19793 full;full). Described as above. The note with it: tags: His kept;His cleaved; copies: 1;1; label: surface-attached array probe. The method in brief: as §1
RARg:RXRa, sequence (P13631 whole entry, chain 1 of 2): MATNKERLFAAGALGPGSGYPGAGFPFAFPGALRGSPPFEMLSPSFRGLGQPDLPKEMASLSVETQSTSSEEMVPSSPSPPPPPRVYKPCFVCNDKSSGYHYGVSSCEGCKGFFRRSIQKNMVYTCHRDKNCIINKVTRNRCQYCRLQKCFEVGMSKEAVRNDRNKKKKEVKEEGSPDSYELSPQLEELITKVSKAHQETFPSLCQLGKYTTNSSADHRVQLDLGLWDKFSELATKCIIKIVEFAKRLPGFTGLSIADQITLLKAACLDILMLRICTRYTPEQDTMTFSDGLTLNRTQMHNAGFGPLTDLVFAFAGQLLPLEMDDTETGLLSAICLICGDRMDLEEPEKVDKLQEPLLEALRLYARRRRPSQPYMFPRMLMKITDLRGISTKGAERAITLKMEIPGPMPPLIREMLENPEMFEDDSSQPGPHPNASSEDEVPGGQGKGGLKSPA
RARg:RXRa, sequence (P19793 whole entry, chain 2 of 2): as the sequence (P19793 whole entry, chain 2 of 2) above
The target of a further series is RXRa (Homo sapiens, UniProt P19793). Briefly: no ligand; PBM; 180 nM; PBS pH 7.4, 2% milk, 0.02% Triton X-100, 1 mM DTT, BSA, 0.4 mg/ml salmon testes DNA. The note with it: tags: His cleaved; chain copies: 2; label: surface-attached array probe.
RXRa, sequence (P19793 whole entry): as the sequence (P19793 whole entry, chain 2 of 2) above
The next series addresses RARb:RXRa (Homo sapiens, UniProt P10826;P19793 full;full). Briefly: no ligand; PBM; 270 nM : 90 nM RXRa; PBS pH 7.4, 2% milk, 0.02% Triton X-100, 1 mM DTT, BSA, 0.4 mg/ml salmon testes DNA. The note with it: tags: His kept;His cleaved; copies: 1;1; label: surface-attached array probe. The gist of the method:
as §1

A further series concerns the target PPARa:RXRa (Homo sapiens, UniProt Q07869;P19793 full;full). The description is as above. The note with it: tags: GST kept;His cleaved; copies: 1;1; label: surface-attached array probe. The method in brief: as §1

RARb:RXRa, sequence (P10826 whole entry, chain 1 of 2): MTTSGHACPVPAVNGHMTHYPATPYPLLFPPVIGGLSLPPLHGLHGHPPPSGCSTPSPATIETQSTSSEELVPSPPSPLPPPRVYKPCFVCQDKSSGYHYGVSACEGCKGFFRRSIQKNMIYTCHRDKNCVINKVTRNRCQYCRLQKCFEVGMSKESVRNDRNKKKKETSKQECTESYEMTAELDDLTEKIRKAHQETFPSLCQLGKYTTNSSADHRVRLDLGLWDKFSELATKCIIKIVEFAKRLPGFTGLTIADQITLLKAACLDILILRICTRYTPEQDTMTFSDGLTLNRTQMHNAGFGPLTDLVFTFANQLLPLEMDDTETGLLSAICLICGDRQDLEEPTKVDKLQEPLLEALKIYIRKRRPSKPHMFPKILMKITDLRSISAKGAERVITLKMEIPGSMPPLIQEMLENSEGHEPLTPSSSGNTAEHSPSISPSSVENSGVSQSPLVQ
RARb:RXRa, sequence (P19793 whole entry, chain 2 of 2): as the sequence (P19793 whole entry, chain 2 of 2) above
VDR:RXRa, sequence (P11473 whole entry, chain 1 of 2): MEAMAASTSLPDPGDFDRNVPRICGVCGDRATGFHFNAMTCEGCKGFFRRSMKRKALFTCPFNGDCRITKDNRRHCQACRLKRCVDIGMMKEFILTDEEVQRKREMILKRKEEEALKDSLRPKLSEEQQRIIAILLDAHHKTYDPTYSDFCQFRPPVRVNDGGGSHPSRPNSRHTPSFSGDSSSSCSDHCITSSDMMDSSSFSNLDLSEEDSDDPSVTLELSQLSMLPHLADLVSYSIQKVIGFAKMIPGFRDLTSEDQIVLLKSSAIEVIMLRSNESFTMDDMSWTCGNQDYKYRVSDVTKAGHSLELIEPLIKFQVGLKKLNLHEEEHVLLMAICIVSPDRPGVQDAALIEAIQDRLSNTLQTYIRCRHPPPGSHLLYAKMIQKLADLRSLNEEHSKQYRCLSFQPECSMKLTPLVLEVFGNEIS
VDR:RXRa, sequence (P19793 whole entry, chain 2 of 2): as the sequence (P19793 whole entry, chain 2 of 2) above
LXRb:RXRa, sequence (P55055 whole entry, chain 1 of 2): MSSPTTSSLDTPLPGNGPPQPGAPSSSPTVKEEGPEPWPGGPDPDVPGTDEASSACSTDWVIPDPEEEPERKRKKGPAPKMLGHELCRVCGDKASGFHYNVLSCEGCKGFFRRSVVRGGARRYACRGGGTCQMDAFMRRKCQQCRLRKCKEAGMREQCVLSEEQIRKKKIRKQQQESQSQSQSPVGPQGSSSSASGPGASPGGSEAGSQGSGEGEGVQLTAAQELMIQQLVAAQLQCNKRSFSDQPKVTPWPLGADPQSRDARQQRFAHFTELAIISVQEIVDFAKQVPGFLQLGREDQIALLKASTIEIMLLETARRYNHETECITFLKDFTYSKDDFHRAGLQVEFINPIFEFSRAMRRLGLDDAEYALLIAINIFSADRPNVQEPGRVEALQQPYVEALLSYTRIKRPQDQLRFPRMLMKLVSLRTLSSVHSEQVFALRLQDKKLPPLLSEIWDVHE
LXRb:RXRa, sequence (P19793 whole entry, chain 2 of 2): as the sequence (P19793 whole entry, chain 2 of 2) above
PPARa:RXRa, sequence (Q07869 whole entry, chain 1 of 2): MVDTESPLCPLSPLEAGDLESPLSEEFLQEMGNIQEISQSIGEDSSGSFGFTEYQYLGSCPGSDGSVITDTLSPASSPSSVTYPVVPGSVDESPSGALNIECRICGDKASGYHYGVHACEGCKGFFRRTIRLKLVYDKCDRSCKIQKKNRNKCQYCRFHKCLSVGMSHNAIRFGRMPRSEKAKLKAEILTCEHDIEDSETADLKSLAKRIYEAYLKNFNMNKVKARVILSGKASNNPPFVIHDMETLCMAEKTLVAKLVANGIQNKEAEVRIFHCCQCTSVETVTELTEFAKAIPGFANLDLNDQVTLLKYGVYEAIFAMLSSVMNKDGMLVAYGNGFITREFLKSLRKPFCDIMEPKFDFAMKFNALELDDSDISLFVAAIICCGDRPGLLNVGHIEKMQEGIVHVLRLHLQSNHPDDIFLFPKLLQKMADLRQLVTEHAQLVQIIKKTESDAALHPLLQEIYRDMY
PPARa:RXRa, sequence (P19793 whole entry, chain 2 of 2): as the sequence (P19793 whole entry, chain 2 of 2) above

B1: NRC3_wobSeed27_DR1_G24A_o1 (dsDNA)
DNA 1: GCACTCGGAGGACAAAGGTCAGAACTACGCCAGTGAGCGATTGACAGCGTAGAATGAAGG
DNA 2: CCTTCATTCTACGCTGTCAATCGCTCACTGGCGTAGTTCTGACCTTTGTCCTCCGAGTGC
In the case of B1, the binding signal is 3.2 PBM z-score against 500 random probes with VDR:RXRa and 3.26 PBM z-score against 500 random probes in the series with LXRb:RXRa.

B2: NRC3_wobSeed109_DR4_A19G_o1 (dsDNA)
DNA 1: GCCGTCCAAGGTCATAGGGGGTCAGTGAAGACAGATGCGATTGACAGCGTAGAATGAAGG
DNA 2: CCTTCATTCTACGCTGTCAATCGCATCTGTCTTCACTGACCCCCTATGACCTTGGACGGC
On to B2, for which the binding signal is 7.46 PBM z-score against 500 random probes with VDR:RXRa, 7.12 PBM z-score against 500 random probes with LXRb:RXRa, 8.21 PBM z-score against 500 random probes in the series with FXR:RXRa and 7.6 PBM z-score against 500 random probes with RARg:RXRa.

B3: NRC3_random_hg19_165_o1 (dsDNA)
DNA 1: GCTGAGTCCCTGCACTAGTCGGTTTGAGCTGCTTGTGCGATTGACAGCGTAGAATGAAGG
DNA 2: CCTTCATTCTACGCTGTCAATCGCACAAGCAGCTCAAACCGACTAGTGCAGGGACTCAGC
For B3, the binding signal was -1.2 PBM z-score against 500 random probes with RXRa and -0.66 PBM z-score against 500 random probes with LXRb:RXRa.

B4: NRC3_wobSeed100_DR4_T22G_o1 (dsDNA)
DNA 1: GCCCTACTGGGCCACGAAAGGGCATTGATTCAGTGAGCGATTGACAGCGTAGAATGAAGG
DNA 2: CCTTCATTCTACGCTGTCAATCGCTCACTGAATCAATGCCCTTTCGTGGCCCAGTAGGGC
Regarding B4, the binding signal with VDR:RXRa is 0.11 PBM z-score against 500 random probes; with LXRb:RXRa it was 0.15 PBM z-score against 500 random probes.

B5: NRC3_wobSeed37_DR1_T23C_o1 (dsDNA)
DNA 1: GCCGTCCAAGGTCAAAGGTCAGCGAAGAGATGACGGGCGATTGACAGCGTAGAATGAAGG
DNA 2: CCTTCATTCTACGCTGTCAATCGCCCGTCATCTCTTCGCTGACCTTTGACCTTGGACGGC
Turning to B5, the binding signal with RARb:RXRa is 6.23 PBM z-score against 500 random probes; with LXRb:RXRa it was 7.14 PBM z-score against 500 random probes.

B6: NRC3_random_hg19_348_o1 (dsDNA)
DNA 1: GCGGAGCAGTCTGCTTTCACGCAGCCTGCTGGGCACGCGATTGACAGCGTAGAATGAAGG
DNA 2: CCTTCATTCTACGCTGTCAATCGCGTGCCCAGCAGGCTGCGTGAAAGCAGACTGCTCCGC
As for B6, the binding signal is -2.02 PBM z-score against 500 random probes with RARb:RXRa and -1.82 PBM z-score against 500 random probes in the series with LXRb:RXRa.

B7: NRC3_random_hg19_263_o1 (dsDNA)
DNA 1: GCGCTGGGTAGATCTGCCACTGAAGCCTACATGGAGGCGATTGACAGCGTAGAATGAAGG
DNA 2: CCTTCATTCTACGCTGTCAATCGCCTCCATGTAGGCTTCAGTGGCAGATCTACCCAGCGC
Regarding B7, the binding signal in the series with VDR:RXRa is -0.87 PBM z-score against 500 random probes; with LXRb:RXRa it was -1.05 PBM z-score against 500 random probes.

B8: NRC3_random_hg19_373_o1 (dsDNA)
DNA 1: GCTGCCACAGAGGATACTGTGACGTTATGCATCACTGCGATTGACAGCGTAGAATGAAGG
DNA 2: CCTTCATTCTACGCTGTCAATCGCAGTGATGCATAACGTCACAGTATCCTCTGTGGCAGC
B8: the binding signal with VDR:RXRa is -0.23 PBM z-score against 500 random probes; with LXRb:RXRa it was -0.59 PBM z-score against 500 random probes.

B9: NRC3_wobSeed98_DR4_C23A_o1 (dsDNA)
DNA 1: GCACTAGTTGGTCAGCTGAGGTAACACACAATTCGGGCGATTGACAGCGTAGAATGAAGG
DNA 2: CCTTCATTCTACGCTGTCAATCGCCCGAATTGTGTGTTACCTCAGCTGACCAACTAGTGC
Take B9: the binding signal in the series with RXRa was 0.48 PBM z-score against 500 random probes; with LXRb:RXRa, 0.34 PBM z-score against 500 random probes.

B10: NRC3_random_hg19_18_o1 (dsDNA)
DNA 1: GCATACACTTCTGGAGGCCAGAGGTCTGAAATCAAGGCGATTGACAGCGTAGAATGAAGG
DNA 2: CCTTCATTCTACGCTGTCAATCGCCTTGATTTCAGACCTCTGGCCTCCAGAAGTGTATGC
For B10, the figures for the binding signal with RARb:RXRa and with LXRb:RXRa were 0.42 PBM z-score against 500 random probes and -0.22 PBM z-score against 500 random probes, respectively.

B11: NRC3_wobSeed10_DR0_G17T_o1 (dsDNA)
DNA 1: GCATCGAAAGGTCGAGTTGAGTATAGAGAAAGGGAAGCGATTGACAGCGTAGAATGAAGG
DNA 2: CCTTCATTCTACGCTGTCAATCGCTTCCCTTTCTCTATACTCAACTCGACCTTTCGATGC
As for B11, the binding signal is 4.1 PBM z-score against 500 random probes with RXRa and 3.11 PBM z-score against 500 random probes in the series with LXRb:RXRa.

B12: NRC3_random_hg19_183_o1 (dsDNA)
DNA 1: GCGAGGACAGAGTAGATCAACCTTTCCTACCTCTAAGCGATTGACAGCGTAGAATGAAGG
DNA 2: CCTTCATTCTACGCTGTCAATCGCTTAGAGGTAGGAAAGGTTGATCTACTCTGTCCTCGC
With B12, the binding signal with VDR:RXRa was 0.02 PBM z-score against 500 random probes; with LXRb:RXRa, -0.11 PBM z-score against 500 random probes.

B13: NRC3_random_hg19_480_o1 (dsDNA)
DNA 1: GCGAGAATGGTCAGTACATTCAACCATGAATTCAAGGCGATTGACAGCGTAGAATGAAGG
DNA 2: CCTTCATTCTACGCTGTCAATCGCCTTGAATTCATGGTTGAATGTACTGACCATTCTCGC
Turning to B13, the binding signal in the series with VDR:RXRa was 0.03 PBM z-score against 500 random probes; with LXRb:RXRa it was -0.32 PBM z-score against 500 random probes.

B14: NRC3_wobSeed130_DR5_T12G_o1 (dsDNA)
DNA 1: GCCTCGAAAGGGCGTGCTCAGGTGAGTATACCAAACGCGATTGACAGCGTAGAATGAAGG
DNA 2: CCTTCATTCTACGCTGTCAATCGCGTTTGGTATACTCACCTGAGCACGCCCTTTCGAGGC
In the case of B14, the binding signal with RXRa was 0.33 PBM z-score against 500 random probes; in the series with LXRb:RXRa, 0.29 PBM z-score against 500 random probes.

B15: NRC3_wobSeed29_DR1_T22A_o1 (dsDNA)
DNA 1: GCGCTTACGGGTCAAAGGTTAAAGCATGAATAGAATGCGATTGACAGCGTAGAATGAAGG
DNA 2: CCTTCATTCTACGCTGTCAATCGCATTCTATTCATGCTTTAACCTTTGACCCGTAAGCGC
Take B15: the results for the binding signal with RXRa and in the series with LXRb:RXRa were 10 PBM z-score against 500 random probes and 6.19 PBM z-score against 500 random probes, respectively.

B16: NRC3_wobSeed21_DR0_C21T_o1 (dsDNA)
DNA 1: GCCGTCAAAGTTCAAGGTAATGTAACAGAAAGCAGCGCGATTGACAGCGTAGAATGAAGG
DNA 2: CCTTCATTCTACGCTGTCAATCGCGCTGCTTTCTGTTACATTACCTTGAACTTTGACGGC
As to B16, the binding signal with VDR:RXRa is 3.72 PBM z-score against 500 random probes; with LXRb:RXRa, 3.22 PBM z-score against 500 random probes.

B17: NRC3_random_hg19_83_o1 (dsDNA)
DNA 1: GCGCTGTACATGATGTGGCCTCCCAGCCCAGGATCTGCGATTGACAGCGTAGAATGAAGG
DNA 2: CCTTCATTCTACGCTGTCAATCGCAGATCCTGGGCTGGGAGGCCACATCATGTACAGCGC
Consider B17, for which the binding signal in the series with VDR:RXRa is -0.48 PBM z-score against 500 random probes; with PPARa:RXRa, -0.53 PBM z-score against 500 random probes; with LXRb:RXRa, -0.83 PBM z-score against 500 random probes.

B18: NRC3_wobSeed86_DR3_o1 (dsDNA)
DNA 1: GCGCTGCTAGGTCAGGTTGGTCAGCTAACGGGTACGGCGATTGACAGCGTAGAATGAAGG
DNA 2: CCTTCATTCTACGCTGTCAATCGCCGTACCCGTTAGCTGACCAACCTGACCTAGCAGCGC
Regarding B18, the binding signal was 0.5 PBM z-score against 500 random probes with VDR:RXRa and 0.46 PBM z-score against 500 random probes with LXRb:RXRa.

B19: NRC3_random_hg19_225_o1 (dsDNA)
DNA 1: GCTGGATGAAGTGGAAGAACAAGGCTATTCTTTACTGCGATTGACAGCGTAGAATGAAGG
DNA 2: CCTTCATTCTACGCTGTCAATCGCAGTAAAGAATAGCCTTGTTCTTCCACTTCATCCAGC
With B19, the binding signal is -0.39 PBM z-score against 500 random probes with RXRa, -0.34 PBM z-score against 500 random probes with LXRb:RXRa and 0.01 PBM z-score against 500 random probes in the series with RARg:RXRa.

B20: NRC3_random_hg19_332_o1 (dsDNA)
DNA 1: GCTTGTCCTCAGCCTCCTGAGCAGCTGGGACTATAGGCGATTGACAGCGTAGAATGAAGG
DNA 2: CCTTCATTCTACGCTGTCAATCGCCTATAGTCCCAGCTGCTCAGGAGGCTGAGGACAAGC
As for B20, the binding signal with VDR:RXRa was -1.03 PBM z-score against 500 random probes; with LXRb:RXRa, -1.23 PBM z-score against 500 random probes; with FXR:RXRa, -0.13 PBM z-score against 500 random probes.

B21: NRC3_random_hg19_43_o1 (dsDNA)
DNA 1: GCAGGACCTCTTCAAGGAGAACTACAAACCACTGCTGCGATTGACAGCGTAGAATGAAGG
DNA 2: CCTTCATTCTACGCTGTCAATCGCAGCAGTGGTTTGTAGTTCTCCTTGAAGAGGTCCTGC
Take B21: the binding signal is -0.5 PBM z-score against 500 random probes in the series with RARb:RXRa, -0.17 PBM z-score against 500 random probes with PPARa:RXRa and -0.03 PBM z-score against 500 random probes with LXRb:RXRa.

B22: NRC3_wobSeed45_DR1_A14T_o1 (dsDNA)
DNA 1: GCTGTCAAAGTTCTAAGGTAACGTAAGTATCCACACGCGATTGACAGCGTAGAATGAAGG
DNA 2: CCTTCATTCTACGCTGTCAATCGCGTGTGGATACTTACGTTACCTTAGAACTTTGACAGC
As for B22, the binding signal is 0.38 PBM z-score against 500 random probes with RXRa, 0.4 PBM z-score against 500 random probes in the series with LXRb:RXRa and 0.41 PBM z-score against 500 random probes with RARg:RXRa.
